# Measurements: patent US20220378833A1 (Novartis, published 2022)
# Columns and labels:
# [1] = molecular target: T1, His-Avidin-FKBP (wild-type FKBP) (biotinylated (residue not stated; construct carries an avi-tag)); assay: AlphaLISA direct assay: 30 nM Flag-FRB and 30 nM biotinylated FKBP; the titrated species is everolimus (EC50 is an everolimus concentration)
# T1 construct: also called biotinylated wild-type FKBP; biotinylated FKBP
# Procedure: (§1) FRB mutations were also ranked in an alternative assay format. […] All dilutions were made in 1 × AlphaLISA Immunoassay buffer (PerkinElmer). Anti-Flag acceptor beads (PerkinElmer) were added at 10 ug/ml final concentration and incubated for one hour at room temperature. Streptavidin donor beads (PerkinElmer), were then added at a final concentration of 40 ug/ml and the plate was protected from light and incubated for 30 minutes at room temperature. The plate was then read on the PerkinElmer EnVision Multiplate reader equipped with the Alpha Module using excitation of 680 nm and a 570 nm Emission filter.
# [2] = molecular target: T1, His-Avidin-FKBP (wild-type FKBP); assay: AlphaLISA direct assay, Flag-FRB and biotinylated FKBP, everolimus titrated
# Procedure: as §1
# T1 sequence (chain, as listed by the source limits assumed): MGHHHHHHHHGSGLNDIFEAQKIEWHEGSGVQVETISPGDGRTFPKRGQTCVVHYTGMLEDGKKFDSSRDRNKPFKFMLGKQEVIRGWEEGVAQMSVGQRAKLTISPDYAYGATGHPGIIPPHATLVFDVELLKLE
EC50 [1] [nM],fold improvement over wild type FRB [2] [fold],Binder
3.9,–,"His-FLAG-FRB (wild-type FRB) (other, also called wild type Flag-FRB) MGHHHHHHHHGSDYKDDDDKGSASRILWHEMWHEGLEEASRLYFGERNVKGMFEVLEPLHAMMERGPQTLKETSFNQAYGRDLMEAQEWCRKYMKSGNVKDLTQAWDLYYHVFRRISKTS"
2.46,–,"His-FLAG-FRB E2032I (other, also called E20321 (OCR form)) MGHHHHHHHHGSDYKDDDDKGSASRILWHEMWHEGLIEASRLYFGERNVKGMFEVLEPLHAMMERGPQTLKETSFNQAYGRDLMEAQEWCRKYMKSGNVKDLTQAWDLYYHVFRRISKTS"
1.44,3,His-FLAG-FRB T2098L (other) MGHHHHHHHHGSDYKDDDDKGSASRILWHEMWHEGLEEASRLYFGERNVKGMFEVLEPLHAMMERGPQTLKETSFNQAYGRDLMEAQEWCRKYMKSGNVKDLLQAWDLYYHVFRRISKTS
2.15,–,His-FLAG-FRB E2032L (other) MGHHHHHHHHGSDYKDDDDKGSASRILWHEMWHEGLLEASRLYFGERNVKGMFEVLEPLHAMMERGPQTLKETSFNQAYGRDLMEAQEWCRKYMKSGNVKDLTQAWDLYYHVFRRISKTS
